Laboratory results from patent publication US20240287172A1 (SCIRHOM, published 2024).

T1: hiR1-FL-WT-T7 (human, UniProt Q96CC6 1-855)
T1 construct: on MEF-DKO cells
T1 sequence: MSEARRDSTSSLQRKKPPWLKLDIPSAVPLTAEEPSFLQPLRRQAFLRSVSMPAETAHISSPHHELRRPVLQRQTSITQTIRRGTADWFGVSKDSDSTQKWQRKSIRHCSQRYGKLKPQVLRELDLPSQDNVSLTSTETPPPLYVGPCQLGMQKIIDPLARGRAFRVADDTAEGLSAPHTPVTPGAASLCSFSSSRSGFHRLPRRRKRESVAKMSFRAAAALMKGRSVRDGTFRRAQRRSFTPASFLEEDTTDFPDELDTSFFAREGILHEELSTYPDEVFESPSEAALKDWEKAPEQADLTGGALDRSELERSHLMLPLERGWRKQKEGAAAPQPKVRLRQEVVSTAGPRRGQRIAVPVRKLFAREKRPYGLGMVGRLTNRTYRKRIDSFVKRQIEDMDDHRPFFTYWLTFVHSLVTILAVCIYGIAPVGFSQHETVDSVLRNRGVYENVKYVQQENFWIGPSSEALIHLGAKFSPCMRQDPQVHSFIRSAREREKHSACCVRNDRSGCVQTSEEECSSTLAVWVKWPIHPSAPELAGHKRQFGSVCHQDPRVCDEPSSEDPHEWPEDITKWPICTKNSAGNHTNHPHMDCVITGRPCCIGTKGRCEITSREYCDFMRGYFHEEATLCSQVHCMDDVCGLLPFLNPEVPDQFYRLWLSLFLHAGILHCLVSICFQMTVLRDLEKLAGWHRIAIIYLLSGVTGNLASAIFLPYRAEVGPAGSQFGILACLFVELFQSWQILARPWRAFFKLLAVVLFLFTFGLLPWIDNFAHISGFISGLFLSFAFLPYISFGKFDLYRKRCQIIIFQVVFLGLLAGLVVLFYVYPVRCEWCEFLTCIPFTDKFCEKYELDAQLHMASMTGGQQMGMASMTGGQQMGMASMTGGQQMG

T2: hiR2-FL-S537E-T7 (human, UniProt Q6PJF5 1-856)
T2 sequence: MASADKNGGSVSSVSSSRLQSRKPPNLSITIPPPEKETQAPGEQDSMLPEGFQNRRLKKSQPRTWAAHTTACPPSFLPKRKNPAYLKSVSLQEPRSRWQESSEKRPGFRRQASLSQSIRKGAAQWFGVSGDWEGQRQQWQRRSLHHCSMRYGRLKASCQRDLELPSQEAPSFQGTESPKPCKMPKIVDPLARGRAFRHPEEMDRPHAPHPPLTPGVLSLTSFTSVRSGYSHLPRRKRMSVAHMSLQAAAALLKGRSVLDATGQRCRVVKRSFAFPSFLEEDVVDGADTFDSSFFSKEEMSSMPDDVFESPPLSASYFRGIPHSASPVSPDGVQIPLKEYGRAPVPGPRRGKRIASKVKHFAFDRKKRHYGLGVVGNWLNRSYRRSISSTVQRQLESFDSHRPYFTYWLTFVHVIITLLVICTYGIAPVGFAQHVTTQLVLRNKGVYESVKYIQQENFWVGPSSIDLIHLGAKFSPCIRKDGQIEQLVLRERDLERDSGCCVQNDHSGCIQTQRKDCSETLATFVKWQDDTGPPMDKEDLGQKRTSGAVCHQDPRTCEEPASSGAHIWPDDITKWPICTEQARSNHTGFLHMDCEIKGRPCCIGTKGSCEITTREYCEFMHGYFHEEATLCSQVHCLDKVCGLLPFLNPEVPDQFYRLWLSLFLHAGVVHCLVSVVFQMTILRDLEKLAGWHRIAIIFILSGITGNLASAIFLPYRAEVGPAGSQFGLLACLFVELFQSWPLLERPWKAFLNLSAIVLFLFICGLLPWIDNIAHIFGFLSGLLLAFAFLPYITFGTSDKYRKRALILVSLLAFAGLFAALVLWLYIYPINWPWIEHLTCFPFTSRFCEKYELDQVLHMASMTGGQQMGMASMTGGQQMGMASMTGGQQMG


What was measured:
[1] = molecular target: T1, hiR1-FL-WT-T7; assay: FACS, MEF-DKO cells, 3 µg/ml
[2] = molecular target: T2, hiR2-FL-S537E-T7; assay: FACS, MEF-DKO cells, 3 µg/ml

Binder	loss of binding vs wild type [1] [%]	loss of binding vs wild type [2] [%]
antibody 34 (antibody, V domains shown, mouse IgG, kappa light chain; also called clone #34; purified antibody 34) VH: QVTLKESGPGILQPSQTLSLTCSFSGFSLSTFSLGVGWIRQSSGKGLEWLAHIWWDDEKYYNPALKSRLTISKDTSKNQVFLKIANVDAADTATYYCARAYYSKSYYALDYWGQGTSVTVSS VL: DIQMTQSPSSLSASLGERVSLTCRASQEISGYLSWLQQKPDGTIKRLIYAASTLDSGVPKRFSGSRSGSDYSLAISSLESEDFADYYCLQYANFPFTFGSGTKLEIK	≥ 95	≥ 95
antibody 16 (antibody, V domains shown, mouse IgG, kappa light chain; also called clone #16; purified antibody 16) VH: QVTLKESGPGILQPSQTLSLTCSFSGFSLSTFALGVGWIRQPSGRGLEWLAHIWWDDDKYYNPALKSRLTISKDTSKNHVFLKIANVDTADTATYYCARITTYYYGMDYWGQGTSVTVSS VL: DIVLSQSPATLSVTPGDSVSLFCRASQSIGNHLHWYQQESHASPRLLIKYASQSISGIPSRFSGSGSGTDFTLSINSVETEDFGMYFCQQSYNWPLTFGAGTKLELK	≥ 95	
antibody 3 (antibody, V domains shown, mouse IgG, kappa light chain; also called clone #3; purified antibody 3) VH: QVTLKESGPGILQPSQTLSLTCSFSGFSLTTFAMGIGWVRQPSGKGLEWLAHIWWDGEKYNNPVLKSRLTISKDTSKNQVFLRIANVDTPDTATYYCARISSIYYIIDNWGQGTSVTVSS VL: DIVLTQSPATLSVTPGHSVSLSCRASQSISNNLHWYQKKSHESPRLLIKYVSQSISGIPSRFSGSGSGTDFTLSINSVETEDFGMYFCQQSYNWPLTFGAGTKLELK	≥ 95	
antibody 5 (antibody, V domains shown, mouse IgG, kappa light chain; also called clone #5; purified antibody 5) VH: QVTLKESGPGILQPSQTLSLTCSFSGFSLSTFGMGVGWIRQPSGKGLEWLAHIWWDDEKYYNSALKSRLTISKATSKNQAFLKIANVDTADTATYYCARISNYGSNYWYFNVWGTGTTVTVSS VL: QVVLTQSPALMSASPGEKVTMTCSAGSSVSCMYWYQQKPGSSPRVLIYDTSNLASGVPARFTGSGSGTSYSLTISRMEAEDAASYYCQQWNSYPLTFGAGTKLELK	≥ 95	≥ 95
antibody 43 (antibody, V domains shown, mouse IgG, kappa light chain; also called clone #43; purified antibody 43) VH: QVALKESGPGILQPSQTLSLTCSFSGFSLSTFGMGVGWIRQSSGKGLEWLANIWWDDDKYYNPALKSRLTISKDASKNQAFLKIANVDTADTATYYCARIGNYGSNYWYFDVWGTGTTVTVSS VL: QIVLTQSPAIMSASPGERVTMTCSANSRISYMYWYQQKPGSSPRLLIYDTSNLASGVPVRFSGSGSGTSYSLTISRMEAEDAATYNCQQWSSYPLTFGAGTKLELK	≥ 95	≥ 60
antibody 44 (antibody, V domains shown, mouse IgG, kappa light chain; also called clone #44; purified antibody 44) VH: QVTLKESGPGILQPSQTLSLTCSFSGFSLSTFGMGVGWIRQPSEKGLEWLAHIWWDDDKYYNPALKSRLTISKDTSKNQIFLKITNVDTAETATYYCSRIGNYGSNYWYFDVWGTGTTVTVSS VL: QIVLTQSPAVMSASPGEKVTMTCTASSSVYYMYWYQQTPGSSPRLLIYDTSNLASGVPVRFSGSGSGTSYSLTISRMEAEDAATYYCQQWNTYPLTFGAGTKLELK	≥ 95	≥ 60
antibody 42 (antibody, V domains shown, mouse IgG, kappa light chain; also called clone #42; purified antibody 42) VH: QVTLKESGPGILQPSQTLSLTCSLSGFSLSTFGRGVGWIRQPSGKGLEWLAHIWWDDEKYYNPALKSRLTISKDTSKNQVFLRIANVDTADTATYYCARIQNYGSNYWYFDVWGTGTTVTVSS VL: LIVLTQSPAIMSASPGEKVTMTCGATSRISYMFWYQQKPGSSPRVLIYDTSNLASGVPVRFSGSGSGTSYSLTISRVEAEDVATYYCQQWNSYPLTFGAGTKLELK	≥ 95	≥ 60
antibody 22 (antibody, V domains shown, mouse IgG, kappa light chain; also called clone #22; purified antibody 22) VH: QVTLKESGPGILQPSQTLSLTCSFSGFSLSTFGMGVGWIRQPSGKGLEWLAHIWWDDEKYYNSALKSRLTISKATSKNQVFLKIANVDTADTATYYCARISNYGSNYWYFNVWGTGTTVTVSS VL: QVVLTQSPALMSASPGEKVTMTCSAGSSVSYMYWYQQKPGSSPRVLIYDTSNLASGVPARFTGSGSGTSYSLTISRMEAEDAATYYCQQWNSYPLTFGAGTKLELK	≥ 95	≥ 60
antibody 48 (antibody, V domains shown, mouse IgG, kappa light chain; also called clone #48; purified antibody 48) VH: QVQLQQSGTELVRPGTSVKVSCKASGYAFTNYLIEWVKQRPGQGLEWIGVINPGSGFTKYNEKFKGKATLTADKSSSTVYMHLSSLTSEDSAVYFCARGLYRAMDYWGQGTSVTVSS VL: DIQMTQSPASQSASLGESVTITCLASQTIATWLAWYQQKPGKSPQLLIYGATTLADGVPSRFSGGGSGTKFSFKISSLQAEDFVSYYCQQLYSTPYTFGGGTKLEIK	≥ 60	
antibody 50 (antibody, V domains shown, mouse IgG, kappa light chain; also called clone #50; purified antibody 50) VH: QVQLQQSGAELVRPGASVKVSCKASGYAFSNYLIEWVKQRPGQGLEWIGVINPGSGFTKYNEKFKGKATLTADKSSSTAYMQLSSLTSEDSAVYFCARGLYRAMDYWGQGTSVTVSS VL: DIQMTQSPASQSASLGESVTITCLASQTIGTWLAWYQQKPGKSPQLLIYAAASLADGVPSRFSGGGSGTKFSFKISSLQAEDFVNYYCQQIYSTPYTFGGGTKLEIK	≥ 95	
